From patent US20240384288A1, “COUMARIN TRANSPORTERS AND USES THEREOF” (BASF PLANT SCIENCE COMPANY GMBH, priority 2021, published 2024)

Tested on: leaves of N. benthamiana plants
Assay: Transient expression of coumarin transporter in N. benthamiana leaves, coumarins in leaf wash water / leaves by HPLC
Format: in vivo
Method: Droplets of double-distilled water (30 μl) were evenly distributed on the surface of detached leaves placed in a petri dish (approx. 40 droplets on sunflower, 20 droplets on N. benthamiana). Samples were kept at RT for 24 h at high humidity. Subsequently, droplets were carefully collected without touching the leaf surface, filtered and used for HPLC analysis or germination assays.
For transient in planta overexpression assays cDNA sequences of GOIs were cloned in the plant overexpression vector pB7WG2D13 using the Gateway® cloning technology. Similar cloning steps are performed to generate transient in-planta overexpression constructs for any of the other coumarin transporter proteins A0A251U1Q8_HELAN, A0A5N6LHL1_9ASTR, A0A 1I9L1U9_ARTAN, A0A2J6KQ56_LACSA and A0A2G2ZJV1_CAPAN with A0A1S3XDP1_TOBAC as control. […]
Coumarin methanol extracts were centrifuged for 10 min at 21,000 rcf and 70 μl of the supernatant were separated via HPLC on a reverse phase C18 column (KROMAPLUS 100-5-C18 5.0, Prontosil). ddH2O and acetonitrile, both containing 1.5% (v/v) acetic acid, were used as solvents. […] Coumarin fluorescence was detected at λ=335 nm excitation and λ=460 nm emission (FP 920 Intelligent Fluorescence Detector, Jasco) or at λ=342 nm (UV absorbance). […] For quantification, a standard curve of commercial standards with known concentrations was measured.

B1: AtPDR9: already published Arabidopsis thaliana coumarin transporter, used as control (protein, UniProt Q9LFH0 1-1450, looked up)
ABC transporter G family …: MAHMVGADDIESLRVELAEIGRSIRSSFRRHTSSFRSSSSIYEVENDGDVNDHDAEYALQWAEIERLPTVKRMRSTLLDDGDESMTEKGRRVVDVTKLGAVERHLMIEKLIKHIENDNLKLLKKIRRRIDRVGMELPTIEVRYESLKVVAECEVVEGKALPTLWNTAKRVLSELVKLTGAKTHEAKINIINDVNGIIKPGRLTLLLGPPSCGKTTLLKALSGNLENNLKCSGEISYNGHRLDEFVPQKTSAYISQYDLHIAEMTVRETVDFSARCQGVGSRTDIMMEVSKREKEKGIIPDTEVDAYMKAISVEGLQRSLQTDYILKILGLDICAEILIGDVMRRGISGGQKKRLTTAEMIVGPTKALFMDEITNGLDSSTAFQIVKSLQQFAHISSATVLVSLLQPAPESYDLFDDIMLMAKGRIVYHGPRGEVLNFFEDCGFRCPERKGVADFLQEVISKKDQAQYWWHEDLPYSFVSVEMLSKKFKDLSIGKKIEDTLSKPYDRSKSHKDALSFSVYSLPNWELFIACISREYLLMKRNYFVYIFKTAQLVMAAFITMTVFIRTRMGIDIIHGNSYMSALFFALIILLVDGFPELSMTAQRLAVFYKQKQLCFYPAWAYAIPATVLKVPLSFFESLVWTCLSYYVIGYTPEASRFFKQFILLFAVHFTSISMFRCLAAIFQTVVASITAGSFGILFTFVFAGFVIPPPSMPAWLKWGFWANPLSYGEIGLSVNEFLAPRWNQMQPNNFTLGRTILQTRGMDYNGYMYWVSLCALLGFTVLFNIIFTLALTFLKSPTSSRAMISQDKLSELQGTEKSTEDSSVRKKTTDSPVKTEEEDKMVLPFKPLTVTFQDLNYFVDMPVEMRDQGYDQKKLQLLSDITGAFRPGILTALMGVSGAGKTTLLDVLAGRKTSGYIEGDIRISGFPKVQETFARVSGYCEQTDIHSPNITVEESVIYSAWLRLAPEIDATTKTKFVKQVLETIELDEIKDSLVGVTGVSGLSTEQRKRLTIAVELVANPSIIFMDEPTTGLDARAAAIVMRAVKNVADTGRTIVCTIHQPSIDIFEAFDELVLLKRGGRMIYTGPLGQHSRHIIEYFESVPEIPKIKDNHNPATWMLDVSSQSVEIELGVDFAKIYHDSALYKRNSELVKQLSQPDSGSSDIQFKRTFAQSWWGQFKSILWKMNLSYWRSPSYNLMRMMHTLVSSLIFGALFWKQGQNLDTQQSMFTVFGAIYGLVLFLGINNCASALQYFETERNVMYRERFAGMYSATAYALGQVVTEIPYIFIQAAEFVIVTYPMIGFYPSAYKVFWSLYSMFCSLLTFNYLAMFLVSITPNFMVAAILQSLFYVGFNLFSGFLIPQTQVPGWWIWLYYLTPTSWTLNGFISSQYGDIHEEINVFGQSTTVARFLKDYFGFHHDLLAVTAVVQIAFPIALASMFAFFVGKLNFQRR
Scopoletin content in leaf wash water (LWW) (transporter transiently coexpressed with F6'H1, versus biosynthesis gene without transporter): no increased coumarin secretion | Scoparone content in leaf wash water (LWW) (transporter transiently coexpressed with F6'H1 plus OMT3, versus biosynthesis genes without transporter): no increased coumarin secretion
